Measurements taken from patent publication US20150064751.

Test system: cleavage control protein containing an enterokinase cleavage site (Asp-Asp-Asp-Asp-Lys)

Substance: recombinant enterokinase (Novagen)
- protease cleavage, detection of the 16 kDa cleavage fragment by immunoblot (2 h, room temperature): The target protein was specifically cleaved by recombinant enterokinase (lane 2)
